Source: patent US20200255511A1 (TILLOTTS PHARMA, published 2020)

Assays:
CD64 = target: T1, CD64 (UniProt P12314 16-288, limits assumed); assay: SPR (Biacore), His-tagged FcγR captured on anti-His chip, antibody as analyte, 25 °C
T1 construct: Captured on the chip by its His-tag; also called Fcγ receptor CD64
Method: (§1) Affinity to FcγRs was measured by Biacore. A CM5 chip was prepared using standard amine immobilisation Biacore procedures. Upon insertion of a CM5 chip the system was primed and then normalised with BIA-normalizing solution (Biacore Preventative Maintenance Kit 2). The chip was added to the system with PBS-T running buffer; prior to immobilisation the chip surface was primed with three injections of 50 mM NaOH. FcγRs were immobilised on the chip surface using a His-tag capture system. The anti-His tag chip was prepared according to the Biacore kit instructions, with ˜12000 RU's of the antibody deposited on all 4 flow cells. To remove non-covalently bound material from all the chip flow cells, three 30 second 10 mM glycine pH 1.5 washes were performed. The Fcγ receptors were diluted in PBS-T to a range of 0.5-2 μg/mL, with 2.5-5.0 μL injected onto the chip generating capture levels between 60 and 200 RU's. Antibodies were diluted into PBS-T prior to analysis. Single cycle kinetics were used to estimate the steady state affinity. For each single cycle analysis cycle a titration of 5 antibody concentrations were injected over the FcγR ligand and then the dissociation of the complex was measured. The surface was regenerated using the recommended solution, 10 mM glycine pH 1.5 for the anti-His capture surface. A double referencing method was employed in which data from the ligand bound capture surface (fc 2 and 4) were subtracted from the references surfaces where no ligand was captured (fc 1 and 3 respectively). Blank injections of buffer were run for every antibody titration cycle and then subtracted from analyte injection cycles, to correct for small changes in the ligand capture surface. All analysis was performed at 25° C. and the sample rack was incubated at 10° C. during experimental runs. Each experiment was run at least three times.

CD32a (H) = target: T2, CD32a (H) (UniProt P12318 36-218); assay: as above
T2 construct: Captured by its His-tag
T2 sequence (looked up): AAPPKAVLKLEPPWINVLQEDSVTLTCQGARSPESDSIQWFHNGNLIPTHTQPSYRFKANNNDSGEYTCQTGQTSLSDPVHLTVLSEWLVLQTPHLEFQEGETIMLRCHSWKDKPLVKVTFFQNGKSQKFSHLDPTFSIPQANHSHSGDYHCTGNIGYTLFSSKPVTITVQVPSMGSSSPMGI
Method: as §1

CD32b = target: T3, CD32b (UniProt P31994 43-217); assay: as above
T3 construct: Captured by its His-tag
T3 sequence (looked up): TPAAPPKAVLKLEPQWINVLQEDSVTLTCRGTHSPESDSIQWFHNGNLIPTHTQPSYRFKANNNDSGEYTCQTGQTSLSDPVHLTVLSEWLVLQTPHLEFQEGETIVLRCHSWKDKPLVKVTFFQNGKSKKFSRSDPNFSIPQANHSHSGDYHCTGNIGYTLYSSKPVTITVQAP
Method: as §1

CD16a (V) [1] = target: T4, CD16a (V) (UniProt P08637 17-208); assay: as above
T4 construct: Captured by its His-tag
T4 sequence (P08637 17-208 F176V limits assumed): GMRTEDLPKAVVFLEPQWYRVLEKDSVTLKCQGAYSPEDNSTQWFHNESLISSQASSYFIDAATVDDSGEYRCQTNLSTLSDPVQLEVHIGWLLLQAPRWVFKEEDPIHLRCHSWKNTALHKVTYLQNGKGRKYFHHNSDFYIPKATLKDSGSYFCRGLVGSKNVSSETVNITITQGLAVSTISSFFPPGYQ
Method: as §1
(§2) The mean and standard deviation affinity calculated from two or more independent experiments is shown.

human TNFα [2] = target: T5, human TNFα (human, UniProt P01375 77-233); assay: SPR (Biacore), antibody captured on Protein A, TNFα as analyte, single cycle kinetics, 25 °C
T5 construct: also called recombinant TNFα
T5 sequence (P01375 77-233 limits assumed): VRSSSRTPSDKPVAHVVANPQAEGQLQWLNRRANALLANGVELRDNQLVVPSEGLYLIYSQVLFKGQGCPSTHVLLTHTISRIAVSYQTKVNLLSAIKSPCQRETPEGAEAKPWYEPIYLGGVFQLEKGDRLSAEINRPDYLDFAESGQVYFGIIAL
Method: Affinity to TNFα was measured by Biacore. A CM5 chip was prepared using standard amine immobilisation Biacore procedures. Upon insertion of a CM5 chip the system was primed and then normalised with BIA-normalising solution (Biacore Preventative Maintenance Kit 2). The chip was added to the system with PBS-T running buffer; prior to immobilisation the chip surface was primed with three injections of 50 mM NaOH. Protein A was immobilised on the chip surface. For this, the protein was diluted to 5 μg/mL into 10 mM acetate buffer at pH 4.5 and injected so to generate a bound response of ˜1000 RU's in all 4 flow cells. To remove non-covalently bound material from all the chip flow cells, three 15 second 50 mM NaOH washes were performed. On the Protein A chip, antibody was captured in flow cells 2 and 4, with flow cells 1 and 3 used for reference subtraction. The trial antibodies were diluted in PBS-T to 10 nM and 2.5-7.5 uL injected to obtain 120 RU of captured antibody. The analyte TNFα was prepared at 500 μg/mL in water as directed by the supplier and further diluted into the running buffer Phosphate Buffered Saline Tween-20 (PBS-T). Single cycle kinetics was used to estimate the steady state affinity. For each single cycle analysis cycle a titration of 5 analyte concentrations were injected over the ligand and then the dissociation of the complex was measured. The surface was regenerated using glycine pH 1.7. A double referencing method was employed in which data from the ligand bound capture surface (fc 2 and 4) were subtracted from the references surfaces where no ligand was captured (fc 1 and 3 respectively). Blank injections of buffer were run every 3-4 cycles and then subtracted from analyte injection cycles, to correct for small changes in the ligand capture surface. Repeat injections of analyte at the start and end of each analytical run were used to check for sample degradation, or changes in the instrument performance. All analysis was performed at 25° C. and the sample rack was incubated at 10° C. during experimental runs. Each experiment was run at least three times. A 1-to-1 binding model was used to fit the resulting kinetic data.

[3] = target: T6, monomeric His-tagged human FcRn (human, UniProt P55899 24-297; P61769 21-119, limits assumed); assay: SPR (Biacore 3000) at pH 6.0, antibody amine-coupled, monomeric His-tagged hFcRn as analyte, 25 °C; pH 6.0
T6 construct: also called hFcRn
T6 sequence (P55899 24-297 limits assumed, chain 1 of 2): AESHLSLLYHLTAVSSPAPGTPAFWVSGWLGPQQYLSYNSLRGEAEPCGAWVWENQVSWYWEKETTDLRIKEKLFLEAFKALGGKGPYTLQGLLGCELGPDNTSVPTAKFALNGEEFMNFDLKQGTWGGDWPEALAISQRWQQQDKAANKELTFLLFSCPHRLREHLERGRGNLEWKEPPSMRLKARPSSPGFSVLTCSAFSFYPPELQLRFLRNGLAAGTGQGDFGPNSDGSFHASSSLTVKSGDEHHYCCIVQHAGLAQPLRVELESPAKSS
T6 sequence (P61769 21-119 limits assumed, chain 2 of 2): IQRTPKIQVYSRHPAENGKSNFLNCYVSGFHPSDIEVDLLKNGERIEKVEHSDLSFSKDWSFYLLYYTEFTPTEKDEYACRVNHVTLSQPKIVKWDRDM
Method: (§3) SPR was performed using a Biacore 3000 instrument with CM5 sensor chips coupled with anti-TNFα IgG1 antibodies (˜500 resonance units (RU)) using amine-coupling chemistry as described by the manufacturer. The coupling was performed by injecting 2.0 ug/mL of each protein in 10 mM sodium acetate, pH 4.5, using the amine-coupling kit (GE Healthcare). […] All SPR experiments were conducted at 25° C. with a flow rate of 40 ul/min. Binding data were zero-adjusted, and reference cell value subtracted. The Langmuir 1:1 ligand binding model provided by the BIAevaluation software (version 4.1) was used to determine the binding kinetics.

human TNFα [4] = target: T5, human TNFα; assay: cell-based or functional assay
[5] = target: T6, monomeric His-tagged human FcRn; assay: SPR at pH 6.0, KD against that of IFX; pH 6.0; fold change from IFX
Method: as §3

[6] = target: T6, monomeric His-tagged human FcRn; assay: SPR at pH 6.0, KD against that of Ab-wt; pH 6.0; fold change from Ab-wt
Method: as §3

CD32a (R) = target: T7, CD32a (R) (UniProt P12318 36-218); assay: SPR (Biacore), His-tagged FcγR captured on anti-His chip, antibody as analyte, 25 °C
T7 construct: Captured by its His-tag
T7 sequence (looked up): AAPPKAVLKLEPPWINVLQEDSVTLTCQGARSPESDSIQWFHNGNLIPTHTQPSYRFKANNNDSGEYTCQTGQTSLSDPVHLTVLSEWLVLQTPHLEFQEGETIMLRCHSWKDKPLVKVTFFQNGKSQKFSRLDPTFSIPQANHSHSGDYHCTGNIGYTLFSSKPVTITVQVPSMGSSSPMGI
Method: as §1

CD16a (F) = target: T8, CD16a (F) (UniProt P08637 17-208); assay: as above
T8 construct: Captured by its His-tag
T8 sequence (P08637 17-208 limits assumed): as the sequence (P08637 17-208 F176V limits assumed) above, with V160F counted along it
Method: as §1, §2

CD16b (NA2) = target: T9, CD16b (NA2) (UniProt O75015 17-200, limits assumed); assay: as above
T9 construct: Captured by its His-tag
T9 sequence (O75015 17-200 N65S limits assumed): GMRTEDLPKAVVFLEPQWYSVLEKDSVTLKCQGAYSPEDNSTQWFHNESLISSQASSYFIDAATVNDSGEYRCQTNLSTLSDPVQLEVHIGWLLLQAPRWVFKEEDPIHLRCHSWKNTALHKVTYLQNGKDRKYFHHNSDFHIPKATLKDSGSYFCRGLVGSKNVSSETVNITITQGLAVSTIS
Method: as §1, §2

human C1q = human C1q (human, UniProt P02745 23-245; P02746 28-253; P02747 29-245); assay: ELISA: antibody titrated onto plate-coated human TNFα (1 µg/mL), then human C1q (0.5 µg/mL), detected with rabbit anti-human C1q and HRP anti-rabbit IgG, absorbance 620 nm
Sequence of human C1q (P02745 23-245 limits assumed, chain 1 of 3): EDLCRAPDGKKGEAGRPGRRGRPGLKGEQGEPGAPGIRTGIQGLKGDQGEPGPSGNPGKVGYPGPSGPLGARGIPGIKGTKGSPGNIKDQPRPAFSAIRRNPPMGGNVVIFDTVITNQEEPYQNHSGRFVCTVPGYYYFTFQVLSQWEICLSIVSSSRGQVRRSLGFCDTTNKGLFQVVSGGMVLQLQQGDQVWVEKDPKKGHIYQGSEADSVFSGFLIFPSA
Sequence of human C1q (P02746 28-253 limits assumed, chain 2 of 3): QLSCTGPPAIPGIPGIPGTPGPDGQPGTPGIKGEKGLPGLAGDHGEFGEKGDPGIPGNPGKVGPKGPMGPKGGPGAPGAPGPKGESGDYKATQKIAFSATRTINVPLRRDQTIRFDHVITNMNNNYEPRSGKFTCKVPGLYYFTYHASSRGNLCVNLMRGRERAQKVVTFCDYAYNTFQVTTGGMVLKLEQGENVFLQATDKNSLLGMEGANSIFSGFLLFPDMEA
Sequence of human C1q (P02747 29-245 limits assumed, chain 3 of 3): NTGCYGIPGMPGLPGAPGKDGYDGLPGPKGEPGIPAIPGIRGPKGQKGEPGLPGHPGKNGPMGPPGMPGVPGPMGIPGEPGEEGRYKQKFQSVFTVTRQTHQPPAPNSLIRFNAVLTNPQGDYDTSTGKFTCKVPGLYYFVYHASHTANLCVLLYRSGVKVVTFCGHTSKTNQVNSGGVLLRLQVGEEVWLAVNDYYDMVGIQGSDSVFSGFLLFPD
Method: ELISA was performed using 96-well MaxiSorp plates where the wells were coated with human TNFα diluted to 1 μg/mL in PBS. After incubation O/N at 4° C., the plates were blocked with PBS containing 4% skimmed milk for 1 h and washed four times with PBS containing 0.05% Tween-20 (PBS-T). Then, titrated amounts of the anti-TNFα IgG antibodies were diluted in PBS-T, added and incubated for 1h at RT. After washing using PBS-T, human C1q (0.5 μg/mL) was diluted in 0.1 M Veronal buffer (0.25 mM CaCl₂ and 0.8 mM MgCl₂ pH 7.2), added to the wells and incubated for 1 h. Subsequently, the wells were washed as above before rabbit anti-human C1q diluted 1:5000 in PBS-T was added to the wells and incubated for 1 h. After washing, an HRP-conjugated anti-rabbit IgG from donkey diluted 1:5000 in PBS-T was added. Subsequently, the wells were washed and 100 μL 3,3′,5,5′-Tetramethylbenzidine substrate was added to each well. The absorbance was measured at 620 nm using a Sunrise spectrophotometer.
The anti-TNFα antibody variants were captured on human TNFα before human C1q was added.

CD16a (V) [7] = target: T4, CD16a (V); assay: SPR (Biacore), His-tagged FcγR captured; the sentence names no reference (Ab-wt by Table 5)
Method: Affinity to FcγRs was measured by Biacore. A CM5 chip was prepared using standard amine immobilisation Biacore procedures. Upon insertion of a CM5 chip the system was primed and then normalised with BIA-normalizing solution (Biacore Preventative Maintenance Kit 2). The chip was added to the system with PBS-T running buffer; prior to immobilisation the chip surface was primed with three injections of 50 mM NaOH. FcγRs were immobilised on the chip surface using a His-tag capture system. The anti-His tag chip was prepared according to the Biacore kit instructions, with ˜12000 RU's of the antibody deposited on all 4 flow cells. To remove non-covalently bound material from all the chip flow cells, three 30 second 10 mM glycine pH 1.5 washes were performed. The Fcγ receptors were diluted in PBS-T to a range of 0.5-2 μg/mL, with 2.5-5.0 μL injected onto the chip generating capture levels between 60 and 200 RU's. Antibodies were diluted into PBS-T prior to analysis. Single cycle kinetics were used to estimate the steady state affinity. For each single cycle analysis cycle a titration of 5 antibody concentrations were injected over the FcγR ligand and then the dissociation of the complex was measured. The surface was regenerated using the recommended solution, 10 mM glycine pH 1.5 for the anti-His capture surface. […]

T1 sequence (P12314 16-288 limits assumed): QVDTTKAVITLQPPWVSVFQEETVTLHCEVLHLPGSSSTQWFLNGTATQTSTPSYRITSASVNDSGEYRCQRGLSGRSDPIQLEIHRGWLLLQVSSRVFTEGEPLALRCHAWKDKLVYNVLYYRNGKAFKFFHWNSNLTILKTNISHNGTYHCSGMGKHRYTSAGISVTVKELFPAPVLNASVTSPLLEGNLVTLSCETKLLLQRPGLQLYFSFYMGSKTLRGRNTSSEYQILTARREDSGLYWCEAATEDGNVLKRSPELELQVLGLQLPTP

Binder | Kd (CD64) [nM] | Kd (CD32a (H)) [nM] | Kd (CD32b) [nM] | Kd (CD16a (V) [1]) [nM] | Kd (human TNFα [2]) [nM] | koff (human TNFα [2]) [s⁻¹] | kon (human TNFα [2]) [M⁻¹ s⁻¹] | Kd [3] [nM] | IC50 (read off the curve) (human TNFα [4]) [µg/mL] | Fold change from IFX [5] [fold] | Fold change from wt [6] [fold] | Kd (CD32a (R)) [nM] | Kd (CD16a (F)) [nM] | Kd (CD16b (NA2)) [nM] | EC50 (read off the curve) (human C1q) [µg/mL] | fold increase in affinity (CD16a (V) [7]) [fold]
Ab-wt (antibody, human IgG1, kappa, Human IgG1 anti-TNFα antibody with wild-type Fc; also called parent antibody; wild-type antibody) heavy: not shown light: DIQMTQSPSSLSASVGDRVTIKCQASQSIFSGLAWYQQKPGKAPKLLIYGASKLASGVPSRFSGSGSGTEFTLTISGLQPADFATYYCQSYYYSSSSSDGSYAFGGGTKLTVLGRTVAAPSVFIFPPSDEQLKSGTASVVCLLNNFYPREAKVQWKVDNALQSGNSQESVTEQDSKDSTYSLSSTLTLSKADYEKHKVYACEVTHQGLSSPVTKSFNRGEC | 2.92 | 670 | 3140 | 184 | 0.00413 | 3.45e-05 | 8.37e+06 | 1000 |  |  |  |  |  |  |  | 
Ab-AA (antibody, human IgG1, kappa, Human IgG1; also called E380A/N434A variant) heavy: not shown light: DIQMTQSPSSLSASVGDRVTIKCQASQSIFSGLAWYQQKPGKAPKLLIYGASKLASGVPSRFSGSGSGTEFTLTISGLQPADFATYYCQSYYYSSSSSDGSYAFGGGTKLTVLGRTVAAPSVFIFPPSDEQLKSGTASVVCLLNNFYPREAKVQWKVDNALQSGNSQESVTEQDSKDSTYSLSSTLTLSKADYEKHKVYACEVTHQGLSSPVTKSFNRGEC | 3.59 | 1410 | 2170 | 707 | 0.00247 | 2.06e-05 | 8.54e+06 | 119 | ~0.008 | 3.6 | 8.4 | 2050 | 1760 | 2240 | ~0.6 | 
Ab-AA-2FF (antibody, human IgG1, kappa, N-glycans at N297 (EU) with greatly reduced fucose (<10% fucosylated); produced in the presence of 2-deoxy-2-fluoro-fucose (2FF), human IgG1; also called non-fucosylated variant of Ab-AA) heavy: not shown light: DIQMTQSPSSLSASVGDRVTIKCQASQSIFSGLAWYQQKPGKAPKLLIYGASKLASGVPSRFSGSGSGTEFTLTISGLQPADFATYYCQSYYYSSSSSDGSYAFGGGTKLTVLGRTVAAPSVFIFPPSDEQLKSGTASVVCLLNNFYPREAKVQWKVDNALQSGNSQESVTEQDSKDSTYSLSSTLTLSKADYEKHKVYACEVTHQGLSSPVTKSFNRGEC | 3.17 | 1170 | 1370 | 39.4 | 0.00773 | 5.84e-05 | 7.55e+06 | 103 | ~0.008 | 4.1 | 9.7 | 1560 | 170 | 470 | ~0.7 | 4.7
infliximab (antibody) chain 1: not shown chain 2: DILLTQSPAILSVSPGERVSFSCRASQFVGSSIHWYQQRTNGSPRLLIKYASESMSGIPSRFSGSGSGTDFTLSINTVESEDIADYYCQQSHSWPFTFGSGTNLEVKRTVAAPSVFIFPPSDEQLKSGTASVVCLLNNFYPREAKVQWKVDNALQSGNSQESVTEQDSKDSTYSLSSTLTLSKADYEKHKVYACEVTHQGLSSPVTKSFNRGEC |  |  |  |  |  |  |  |  |  |  |  |  |  |  | ~0.6 | 
